The test system of the series is MS2 coat protein. Description: apparent KD of MS2 coat protein; designed switch direction (-1 OFF switch, 1 ON switch): -1; higher = weaker reporter binding. An outline of the steps: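 For each design, the apparent KD is the median over clusters of curves fitted to normalised cluster fluorescence. Clusters held RNA switches with common flanks, transcribed on Illumina chips by stalled E. coli RNA polymerase. These were titrated with SNAP-549-labelled MS2 coat protein, doubling from 0.7 or 1.5 nM to 3 µM, without input, with 200 uM small-molecule ligand, or with an oligonucleotide input.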

[1] abbreviates: input ligand: microRNA oligo, concentration not stated.
[2] abbreviates: Eterna round: R95, input ligand: FMN 200 uM.
Setting [3] is: Eterna round: R95, input ligand: microRNA oligo, concentration not stated.
[4] abbreviates: Eterna round: R95, input ligand: none.

For “UUAAUUAAUUGCGCAAGAUCACAUGAGGAUCACCCAUGUAUAUAGGAUAUCAGCUCGAUUAGAGCUGAGAAGGAUAUACAGCGC [ExNG3/3-A1] (Eterna round: R96, puzzle: Exclusion NG 3)”, the “apparent KD of MS2 coat protein” value runs as follows: (input ligand: FMN 200 uM) 0.711 µM; under setting [1], 0.192 µM; (input ligand: none) 0.313 µM.

As to “UUAAUUAAUUUAUUAGAUCCUCACAUGAGGAUCACCCAUGUGCAGGAUAUCAGCUCGUUUAGAGCUGAGAAGGGCACUAUAAAU [ExNG3/10-B2] (Eterna round: R96, puzzle: Exclusion NG 3)”, the “apparent KD of MS2 coat protein” value came out at 0.0246 µM (input ligand: FMN 200 uM), 0.0418 µM under setting [1] and 0.0381 µM (input ligand: none).

Consider “UUAGAAUUGUUAGGAUAUUAAUUAUUUUUUAGUAUGAUCUACAUGAGGAUCACCCAUGUUAAAUAUAAGAAGGAACGUUAUAUU [JR_ExcNG2_Sub096] (Eterna round: R96, puzzle: Exclusion NG 2)”, for which, under setting [1], the “apparent KD of MS2 coat protein” value came out at 0.0499 µM.

Turning to “UUAGCGUAUGUAAGGAUAUGCUGGUCUAAUGAUCAGCAGAAGGUACAUGAGGAUCACCCAUGUGGAUUCGUUAU [Mod of JL 8 - Jieux - Brourd's mod of Exclusion 4] (Eterna round: R97, puzzle: Brourd's mod of Exclusion 4)”, the “apparent KD of MS2 coat protein” value runs as follows: (input ligand: FMN 200 uM) 0.327 µM; (input ligand: none) 0.03 µM.

With “UUAGGCUCUGGUUCGUAUUACAUGAGGAUCACCCAUGUGGCCAAGUGAGUUGGGCCGGUCAUGAUUUUGCUCGUUAU [Eternabot (L2) Solution 13] (Eterna round: R97, puzzle: Sensor, turn-off variant 1)”, the “apparent KD of MS2 coat protein” value reads like this: (input ligand: FMN 200 uM) 0.0483 µM; (input ligand: none) 0.0594 µM.

Consider “UUAGUAUAGCAAGGAUAUGUUUAUGUAUAGUUGCCUCUUACAUGAGGAUCACCCAUGUUUAACUUACAGAAGGUGCAAUGAUUU [JR_ExcNG2_Sub033] (Eterna round: R96, puzzle: Exclusion NG 2)”, for which the “apparent KD of MS2 coat protein” value runs as follows: (input ligand: FMN 200 uM) 0.279 µM; under setting [1], 0.108 µM; (input ligand: none) 0.137 µM.

Take “UUAGUGUGAGGAUAUGGUAAAGAUAAGAUGAUGAAAGAACUCCAGAAGGCACAUGAGGAUCACCCAUGUAGAUU [Mat - Exclusion 4 - Mod of JL - D25] (puzzle: Exclusion 4)”: the “apparent KD of MS2 coat protein” value reads like this: under setting [2], 0.0535 µM; under setting [3], 0.0242 µM; under setting [4], 0.0242 µM.

Take “UUAUAACAUGUAGGAUAUGCGUGGCGAAGCUAUGCAGAAGGACAUGAGGAUCACCCAUGUUCCUGCGUCCGCGUACGGAUGCAA [JL Eng1 1.21 mod 1] (Eterna round: R96, puzzle: Exclusion NG 1)”: the “apparent KD of MS2 coat protein” value reads like this: (input ligand: FMN 200 uM) 0.0341 µM; under setting [1], 0.0141 µM; (input ligand: none) 0.0143 µM.

As for “UUAUAUAAUGUGAGGAUAUGCUGGUCCUUGGAUCAGCAGAAGGCACAUGAGGAUCACCCAUGUAGUAAAUUUUA [JL bmx4 3.02] (puzzle: Brourd's mod of Exclusion 4)”, the “apparent KD of MS2 coat protein” value under setting [3] came out at 0.0179 µM.

For “UUAUUAUAUGUAGGAUAUGCAUAUUAUUAUUAUGCAGAAGGACAUGAGGAUCACCCAUGUAUAUUGUUGUUGUAUAUUAUAUAU [Title] (Eterna round: R96, puzzle: Exclusion NG 1)”, the “apparent KD of MS2 coat protein” value under setting [1] turned out to be 0.0209 µM.

For “UUAUUAUAUGUAGGAUAUGCGUAUUAUUGUUAUGCAGAAGGACAUGAGGAUCACCCAUGUAUAUUAUUGUUAUAUAUUAUAUAU [Title] (Eterna round: R96, puzzle: Exclusion NG 1)”, the “apparent KD of MS2 coat protein” value runs as follows: (input ligand: FMN 200 uM) 0.0502 µM; under setting [1], 0.0193 µM; (input ligand: none) 0.0293 µM.

With “UUAUUUAGUGUGAGGAUAUGCUGGUCCAUAGAUCAGCAGAAGGCACAUGAGGAUCACCCAUGUAAUAUAUUAAU [Mat - Exclusion 4 - JL Mod - D32] (puzzle: Brourd's mod of Exclusion 4)”, under setting [3], the “apparent KD of MS2 coat protein” value turned out to be 0.0252 µM.

Turning to “UUAUUUUUUGAGGAUAUGCGACGUUUUUUCGUCGUAGAAGGCGAUACAUGAGGAUCACCCAUGUUUAUGGGCAU [LRO-Ex6-13] (puzzle: Exclusion 6)”, under setting [3], the “apparent KD of MS2 coat protein” value is 0.0738 µM.

Take “UUCCAGACAGGAUAUCUAGUGAGCAACAUGAGGAUCACCCAUGUGACCAUCACCGCCCGCAGAGAAGGGUCAACAG [Inbilaus] (puzzle: Exclusion 5)”: the “apparent KD of MS2 coat protein” value runs as follows: under setting [2], 0.0554 µM; under setting [3], 0.0411 µM; under setting [4], 0.0402 µM.

For the sequence “UUCCGACAUGAGGAUCACCCAUGUAAGGAUAUGCACUAGAGGACAAACCCUCUUAACGGCAGAAGGUGCAGGGA [Solaleisra] (Eterna round: R97, puzzle: Exclusion 1)”, the “apparent KD of MS2 coat protein” value reads like this: (input ligand: FMN 200 uM) 0.0409 µM; (input ligand: none) 0.018 µM.

Take “UUCCUCUUAACAUGAGGAUCACCCAUGUAUUAUUUGGUAAUUGAGGAUAUAUUUUUAAUGUUUAUAUAGAAGGCAAAUACAGUU [JR_ExcNG3_Sub094] (Eterna round: R96, puzzle: Exclusion NG 3)”: under setting [1], the “apparent KD of MS2 coat protein” value came out at 0.0361 µM.

Regarding “UUCGAGGCAGGAUAUGCGUAGCCACGGAGGAUCACCAAGUAACAUGAGGAUCACCCAUGUAGAAGGGCUAGAGC [Eternabot (L1) Solution 26] (Eterna round: R97, puzzle: Exclusion 2)”, the “apparent KD of MS2 coat protein” value is, setting by setting: (input ligand: FMN 200 uM) 0.0601 µM; (input ligand: none) 0.0764 µM.

For “UUCGUGCAGCUUUGCUGUACGAGUACAUGAGGAUCACCCAUGUAGGAUAUGGUACGCUUUGCGUGCCAGAAGGACGUGCGUUAG [salish99_ExNG3_r04_002] (Eterna round: R96, puzzle: Exclusion NG 3)”, the “apparent KD of MS2 coat protein” value (input ligand: FMN 200 uM) worked out at 0.0734 µM, the “apparent KD of MS2 coat protein” value under setting [1] is 0.0341 µM and the “apparent KD of MS2 coat protein” value (input ligand: none) was 0.0421 µM.

As to “UUCGUGCAGCUUUGCUGUACGCGUACAUGAGGAUCACCCAUGUAGGAUAUGGUAGGCAAAGCUUACUAGAAGGAUAGAGUGAUC [Mat - Exclusion NG 3 - Mod of JL - D74] (Eterna round: R96, puzzle: Exclusion NG 3)”, the “apparent KD of MS2 coat protein” value is 0.277 µM (input ligand: FMN 200 uM), 0.0928 µM under setting [1] and 0.122 µM (input ligand: none).

In the case of “UUCUGGACAGGAUAUGUACUUGAGCACUUGAGGAUCACCCAAGUCUUCAAGUACUCAGGCACAGAAGGGUUAAUUU [jl-ex5.4.66 ViennaUCT mod] (Eterna round: R97, puzzle: Exclusion 5)”, the “apparent KD of MS2 coat protein” value is 0.0589 µM (input ligand: FMN 200 uM) and 0.0254 µM (input ligand: none).

As to “UUCUUCUCUGUUAGGAUAUUCUCCGCAGAUGCCUGGAAGAAGGGACAUGAGGAUCACCCAUGUAGUGUAAGCUA [Eternabot (L2) Solution 58] (Eterna round: R97, puzzle: Brourd's mod of Exclusion 4)”, the “apparent KD of MS2 coat protein” value (input ligand: FMN 200 uM) is 0.0406 µM and the “apparent KD of MS2 coat protein” value (input ligand: none) was found to be 0.0628 µM.

Consider “UUGACGGCAGGAUAUACAUGAGGAUCACCCAUGUAAAUUUUUCGUUUAACUUGAAUGUGUAGAAGGGCCAAACC [Ex3 #77] (Eterna round: R97, puzzle: Exclusion 3)”, for which the “apparent KD of MS2 coat protein” value came to 0.0194 µM (input ligand: FMN 200 uM) and 0.0204 µM (input ligand: none).

“UUGCAGUCGUCAGGAUAUAGUAUUACGGCCUUUUAUUUCUUCAUACAUGAGGAUCACCCAUGUCGCUAGAAGGGAUUAUCGAUU [salish99_ExNG2_r04_105] (Eterna round: R96, puzzle: Exclusion NG 2)”: the “apparent KD of MS2 coat protein” value (input ligand: FMN 200 uM) was 0.0178 µM, the “apparent KD of MS2 coat protein” value under setting [1] came to 0.0142 µM and the “apparent KD of MS2 coat protein” value (input ligand: none) was 0.0222 µM.

Consider “UUGCCUAGUGUUAGGAUAUGCGACGGGUGACCGUUGCAGAAGGAACAUGAGGAUCACCCAUGUUUAAUAAAAUC [JL-BMX4-4.44 ViennaUCT mod] (Eterna round: R97, puzzle: Brourd's mod of Exclusion 4)”, for which the “apparent KD of MS2 coat protein” value reads like this: (input ligand: FMN 200 uM) 0.0359 µM; (input ligand: none) 0.0132 µM.

As for “UUGCUCCCUUAGUACUCUACAAGUUUUUUGUUCGUUUUAACAUGAGGAUCACCCAUGUCUAGUGGAUCUGAUCGGGU [JL ViennaUCT Isreen mod 5] (puzzle: Sensor v3, turn-off variant 2)”, the “apparent KD of MS2 coat protein” value came to 0.172 µM under setting [2], 0.336 µM under setting [3] and 0.178 µM under setting [4].

Consider “UUGGUUGUGGUAGGAUAUCCGUUGGAAACCGUCGGAGAAGGACCACAGUCACUGGGUCCUUGUCUGGUGGACUGGAAUCACCAU [pwkr exNG1 F6.15] (Eterna round: R96, puzzle: Exclusion NG 1)”, for which the “apparent KD of MS2 coat protein” value was determined as 0.153 µM (input ligand: FMN 200 uM), 0.172 µM under setting [1] and 0.184 µM (input ligand: none).

For “UUGUACAUAGGAUAUAGUUGUUUGUACAUGAGGAUCACCCAUGUUAUGUAUGUUUUGUUUCUAGAAGGAUGUUGAU [JR_E5_Sub003] (puzzle: Exclusion 5)”, under setting [3], the “apparent KD of MS2 coat protein” value was found to be 0.0471 µM.

With “UUGUUACAUGAGGAUCACCCAUGUGAGGAUAUGAGGGUUAGCUUAAAUGGGCUGACUUUCAGAAGGCACAUGAA [JR_Ex1_Sub058] (Eterna round: R97, puzzle: Exclusion 1)”, the “apparent KD of MS2 coat protein” value runs as follows: (input ligand: FMN 200 uM) 0.327 µM; (input ligand: none) 0.235 µM.

Consider “UUGUUAUAUGUAGGAUAUGCAUAUUAUUAUUAUGCAGAAGGACAUGAGGAUCACCCAUGUGUAUUGUUAUUAUAUAUUAUAUAU [Title] (Eterna round: R96, puzzle: Exclusion NG 1)”, for which the “apparent KD of MS2 coat protein” value under setting [1] was found to be 0.0165 µM.

In the case of “UUGUUAUAUGUAGGAUAUGCAUAUUAUUAUUGUGCAGAAGGACAUGAGGAUCACCCAUGUAUAUUAUUAUUAUAUAUUAUAUAU [Title] (Eterna round: R96, puzzle: Exclusion NG 1)”, the “apparent KD of MS2 coat protein” value under setting [1] is 0.0261 µM.

For “UUGUUAUAUGUAGGAUAUGCAUAUUGUUAUUAUGCAGAAGGACAUGAGGAUCACCCAUGUAUAUUAUUAUUAUAUAUUAUAUAU [Title] (Eterna round: R96, puzzle: Exclusion NG 1)”, under setting [1], the “apparent KD of MS2 coat protein” value turned out to be 0.0225 µM.

(Values after the supplement of paper PMC9170038.)
